# Laboratory results taken from the supplement of paper PMC10567573.
# B1: IKZF1 (parent)
# chain: RDPFECNMCGYHSQDRYEFSSHIT
# Variants of: B1
# Assay: protein stability index of a GFP-peptide fusion (GPS, HEK-293T) (PSI 1-6); higher = more stable
# Conditions: c terminus: a fixed tail appended
# 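Also: lentivirally expressed fusions sorted by FACS into six bins by GFP to DsRed ratio, PSI derived from sequencing read proportions per bin multiplied by bin number.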
row,Variant,protein stability index
1,RDPFECNMCGYHSQDRYEDSSHIT [F19D],3.29
2,RDPFECNGCGYHSQDRYEFSSHIT [M8G],2.07
3,RDPFECNMCGRHSQDRYEFSSHIT [Y11R],2.62
4,RDPFECNMCGYHSQDRYNFSSHIT [E18N],1.54
5,RDPFECNMCGYHSIDRYEFSSHIT [Q14I],2.13
6,RDPFNCNMCGYHSQDRYEFSSHIT [E5N],1.71
7,RDPFELNMCGYHSQDRYEFSSHIT [C6L],1.99
8,RDPFECNMCGYHSQDRYEFSSHLT [I23L],2.15
9,RDPFECNMCGYHSQDRYCFSSHIT [E18C],1.91
10,RDPFECNMCGYHSGDRYEFSSHIT [Q14G],2.38
11,RDPFECNMQGYHSQDRYEFSSHIT [C9Q],2.57
12,RDPFECNMCGYHSQDRYEFSMHIT [S21M],1.84
13,RDWFECNMCGYHSQDRYEFSSHIT [P3W],1.69
14,RRPFECNMCGYHSQDRYEFSSHIT [D2R],1.99
15,RDPFEKNMCGYHSQDRYEFSSHIT [C6K],2.49
16,RDPFECNMCCYHSQDRYEFSSHIT [G10C],2.49
17,RDPFICNMCGYHSQDRYEFSSHIT [E5I],2.38
18,RDPFECNMCGYQSQDRYEFSSHIT [H12Q],3.01
19,RDPFECNMCGYHSQDRYEFSEHIT [S21E],2.27
20,RDVFECNMCGYHSQDRYEFSSHIT [P3V],1.76
21,RDPFECNMCKYHSQDRYEFSSHIT [G10K],2.32
22,RDPFECNMCGYHSQDRYEFSSHIQ [T24Q],2.18
23,RDPFECNMCGYHSQDRYEFSSDIT [H22D],2.7
24,RDPKECNMCGYHSQDRYEFSSHIT [F4K],2.77

row,Variant,protein stability index
1,RDPFECNMCGYRSQDRYEFSSHIT [H12R],2.23
2,RDQFECNMCGYHSQDRYEFSSHIT [P3Q],2.18
3,RDPFECNMEGYHSQDRYEFSSHIT [C9E],3.7
4,RDPFECNMCGYHSQDRREFSSHIT [Y17R],2.1
5,RDPFECNMCGYHSQDRYEFSSHIM [T24M],1.57
6,RDPFECNMCGYHSQDRHEFSSHIT [Y17H],2.81
7,RDNFECNMCGYHSQDRYEFSSHIT [P3N],1.94
8,RDPFECNMCGYNSQDRYEFSSHIT [H12N],2.72
9,RDPFECNMCGYHSQDRYEFSSFIT [H22F],1.97
10,RDPFEYNMCGYHSQDRYEFSSHIT [C6Y],2.04
11,RDPFECNMCGYHSQDRYEFSAHIT [S21A],1.81
12,RDPFECNMIGYHSQDRYEFSSHIT [C9I],3.08
13,RDPFECNMCGYHFQDRYEFSSHIT [S13F],1.78
14,QDPFECNMCGYHSQDRYEFSSHIT [R1Q],2.55
15,RDPFECNMCGYHSQDRYQFSSHIT [E18Q],1.79
16,RDPFECNMCGYHSQDRYEFDSHIT [S20D],2.3
17,RDPFECNMCGYHSQDRNEFSSHIT [Y17N],2.83
18,RDPFECNMCGYHSQDRYEFSSWIT [H22W],1.65
19,RLPFECNMCGYHSQDRYEFSSHIT [D2L],1.93
20,RDPFECNMCGYHSQDRYEHSSHIT [F19H],3.13
21,RDPFECNMCGYHSQDRYKFSSHIT [E18K],1.74
22,RPPFECNMCGYHSQDRYEFSSHIT [D2P],1.98
23,RDPFECNMCGYHSQSRYEFSSHIT [D15S],1.54
24,RDDFECNMCGYHSQDRYEFSSHIT [P3D],2.99

row,Variant,protein stability index
1,RDPFECNMCGYHSQDRYTFSSHIT [E18T],1.54
2,RDPFECNMCGYHSQDRYEFRSHIT [S20R],2.08
3,RDPFECNMCGYHSQPRYEFSSHIT [D15P],2.01
4,RDPFECNMCHYHSQDRYEFSSHIT [G10H],2.33
5,RDPFECNMCGYKSQDRYEFSSHIT [H12K],2.27
6,RDPFECLMCGYHSQDRYEFSSHIT [N7L],1.79
7,RDPFECNMCGYHSQDIYEFSSHIT [R16I],2.74
8,RDPFECNMCGPHSQDRYEFSSHIT [Y11P],2.69
9,RDPFEWNMCGYHSQDRYEFSSHIT [C6W],2.5
10,RDPFECNMCGQHSQDRYEFSSHIT [Y11Q],2.61
11,RDPFECNMCGYHSQDTYEFSSHIT [R16T],2.6
12,RDPFECNMCGYHSQDEYEFSSHIT [R16E],3.15
13,RDYFECNMCGYHSQDRYEFSSHIT [P3Y],1.5
14,RDPFECNMCGYHEQDRYEFSSHIT [S13E],2.53
15,RDPFECNFCGYHSQDRYEFSSHIT [M8F],2.23
16,RDPFEDNMCGYHSQDRYEFSSHIT [C6D],3.8
17,RDPGECNMCGYHSQDRYEFSSHIT [F4G],2.68
18,RAPFECNMCGYHSQDRYEFSSHIT [D2A],1.63
19,RDPFECNMCGYHSCDRYEFSSHIT [Q14C],1.87
20,RDPFECNMCGYHSPDRYEFSSHIT [Q14P],2.3
21,RDPFECNMCGYHSYDRYEFSSHIT [Q14Y],2.31
22,RDPFECNMCGYHSQDAYEFSSHIT [R16A],2.3
23,RDPFECNMCGYHSQDRYLFSSHIT [E18L],2.21
24,RDPFECNMCGYHSQDRYEFSSYIT [H22Y],2.84

row,Variant,protein stability index
1,RDPFECNMCGYHSQDRGEFSSHIT [Y17G],2.19
2,RDPFECNMCGYHSQDRYEFSSHIL [T24L],2.19
3,RDPFECNMCGYHDQDRYEFSSHIT [S13D],2.49
4,RDPFECNMCGWHSQDRYEFSSHIT [Y11W],1.45
5,RDPFEQNMCGYHSQDRYEFSSHIT [C6Q],2.38
6,RDPFECNMCEYHSQDRYEFSSHIT [G10E],2.79
7,RDPFTCNMCGYHSQDRYEFSSHIT [E5T],2.38
8,RDPFECNMCGYMSQDRYEFSSHIT [H12M],1.5
9,RDPFECNMCRYHSQDRYEFSSHIT [G10R],2.13
10,RDPFECNMCGYHSQDRYEFSSHIP [T24P],2.32
11,PDPFECNMCGYHSQDRYEFSSHIT [R1P],2.43
12,RDPFEMNMCGYHSQDRYEFSSHIT [C6M],2.02
13,RDPFECNMCGDHSQDRYEFSSHIT [Y11D],3.51
14,RDCFECNMCGYHSQDRYEFSSHIT [P3C],2.21
15,RDPFECNMCGYHSQDRYYFSSHIT [E18Y],1.43
16,RDPFECNMCGYHSQDRYEFSYHIT [S21Y],1.57
17,RDPFECNLCGYHSQDRYEFSSHIT [M8L],2.18
18,RDPFECNMCGHHSQDRYEFSSHIT [Y11H],2.71
19,RDPFECNMCGYHSQDRYEMSSHIT [F19M],2.28
20,RDPFECNMCGYHSQDRYEFSSTIT [H22T],2.08
21,RDPFECNMCGYHSQDRYEFSSHDT [I23D],3.32
22,RDPFECNMCGYHSQERYEFSSHIT [D15E],1.87
